Experimental data published in a protein production outcome set (Wang et al. 2014).

Assay: label from the status in PepcDB records

| Sequence | protein production |
| --- | --- |
| MLKSIRYLLTIIICLFVGACQHTQDNEEPNSIRKVNLSKAASFNVQLGLGYLKQGDRPRAKKKLLTALEQQPDSADVNAALAYYFEQTKELEQAKKFYHKAITLSQNGGAQLNNYGAFLCRQGDYKNAETYFLKAVKDQNYVHTSGAYENAGLCAMAIPDHDKAILYFTKALNQDPSRKESLYELVKLQSKIGHDKEALELLQKHADLVLNDKVMLALAKDIANRTGQYTLAAEYENSFNKLEQTNNISGVNDEYNSSNG | failed |
| MLDLNEFLTRKMKIDVLLKEHGWDVGDRSKVVLEVDTIQSDIKKQDYRQVNETRRNDAESKYADYLLLDSTGKPLAIIEAKRTTKDPILGQKQAEEYADDIKTQTGEEVFIFLSNGYQIWLWDRERYGPRQIKGFYSPEDLERLLYQRKYSERETEIDIDGNIVDRAKSVEVATRVVEHIHKGHRKALIVMATGTGKTRVAMAIIDQLMRESRVQRVLFLTDRKALRKQAYEKGYLRYFPEETKEIIHSGNYNSNCRLYVSTIQTFQEIYNQKDRNGKYRISPGAFDLIFSDEAHRSIYSKWKGIFTYLDAIQIGLTATPADMVDRDTFRFFECHDDIPTALYSYEDAVRDGVLCDFRKNISGARTYFQIEGLKPENLTEGEREELIKKGIDPDDINFEGTELEKKVAVKGTSEAIVREFMENCLTDQAGTLPAKTIFFAISKLHAKRLWEAFEKLYPEHKGKLARIIVSEDSRAQQLIKDFEEKPFPRIAISVDMMDTGIDVPEVCNLVFAKPVFSKIKFWQMLGRGTRADGACEHREWLPDGKKEYFKVFDFWNNFEYWNMNPEGAKNESAEAITNRIFLTRLKQLGELMQRRDPASEKAAEKVKAKIISDIESLPRDSVNVREHLQDMEKALSPKLWDNIAIDPVEFLQKKIMPLMKFKPDVNLKEATFTLRCEKLAYALLENDKAEIDRLKTSIAEMVDRLPRTLDSVRAREALMDNVLSRSFWETVSFEDVQLLLSDLAPLMPYMAKEPRETIVIDMSDIIAERKKWEISDGNDPSYVEAYRREVEARIKALAETHPAVRKIKNNEPLTDYDLEQLEETLLNADLTPDNPKLSSHASLSDLYPSRQASLVDFIRQVLGLYSSPSPDALIKDAFQTYIIGNNKHYSSDQLNFILTLQTVFLKKKHIEYSTLWLPPFTNFGTTAPFPMFTQEELNSFIDICKGVEKDIFM | not failed |
| MTDYTKLQQVRQWTQDNHVDVTYISNFHTISYLTGFESNPYERTLALFVFADAEPFLFAPALEVEAIKEMGWPYKVFGYLDHENPYALIADHIHAQLTDPKVWALETGNLTLDRFTALKQQFPAAHFDKDLSPYIQQLRLVKTADELEKLNIAGKWADFAFEQGFAAVKAGRTEQQIAAELQYALMKKGIMEMSFDTLVQAGEHAANPHGATNETQVKPNELVLFDLGVMYEGYASDASRTIAYGQPSAKQKEIFDVCLEANLTAQAAIKPGMAAEDVDKIARDIITKAGYGEYFIHRLGHGIGQTDHEFPSIMAGNHMPLVEGMCFSVEPGIYIPGVAGVRIEDCGVVTKEGFKPFTHTPKELKVLDL | failed |
| MVTSSSMRRCRGALSLSFWIFLVLRSVLSRPVFGAAAGPAVQSARQCSASRGTGESDPPPFQPTLRLFPPSRRRRSYCRAMTPSRPSPDFPDGGFVQVRGARQHNLKDISVKVPRDALVVFTGVSGSGKSSLAFGTLYAEAQRRYLESVSPYARRLFNQAGVPDVDAIDGLPPAVALQQARGTPTARSSVGSVTTLSNLLRMLYSRAGDYPPGQGIVYAEGFSPNTPEGACPECHGLGRVYTVTEDSMVPDPSLTIRERAVAAWPQAWGGQNQRDILVTLGIDVDVPWRELPEETRHWILFTDEQPVVPVYPGLTPAETQRALKKKMEPSYMGTFSSARRHVLHTFANTESASMKKRVQGYMISEECPLCHGKRLRQEALNVTFAGLDITELSRLPLARVSELLRPYAEEREPGHAERVKNRPEQAIALQRMAADLVKRLDVLLHLGLGYLGLDRSTPTLSPGELQRLRLATQLYSNLFGVVYVLDEPSAGLHPADTEALLSALENLKRGGNSLFVVEHDLDVIRRADWLVDVGPEAGEKGGEILYSGPPEGLKHVPESQTGQYLFADRHTEPHTPREPAGWLELNGVTRNNLDNLDVRFPLGVMTSVTGVSGSGKSTLVSQALVDALAAHFGQPVNPDPEDDEDPADHTAGSARLGGDLAQITRLVRVDQKPIGRTPRSNMATYTGLFDQVRKLFAATPLAKKRGYNAGRFSFNVKGGRCEHCQGEGWVMVELLFLPSVYAPCPVCHGTRYNAETLEVEYRGKNIADVLALTVDEAHDFFADESAIFRALDTLREVGLGYLRLGQPATELSGGEAQRIKLATELQRSGRGGTVYVLDEPTTGLHPADVERLQRQLVKLVDAGNTVIAVEHKMQVVAASDWVLDIGPGAGEDGGRLVAQGTPAEVAQAAGSVTAPYLRAALRLEHHHHHH | failed |
